Residue numbers refer to the chain shown, from its start. One block for each binder: values may come before it.
What was measured:
Aβ1-42 monomer [1] = target: T1, Aβ1-42 monomer (human); experiment: SPR, Biacore T200; IgG captured on Protein A chip, Aβ1-42 monomer flowed over
T1 construct: Synthetic peptide: Sigma A9810 dissolved in DMSO for Biacore; GenScript RP10017 in NaOH/PBS for the ThT assay; also called human Aβ1-42
Procedure: (§1) The affinity of an antibody to Aβ1-42 monomer was detected by capturing antibody on the chip. IgG was affinity-captured onto Protein A biosensing chip, and then the antigen […] monomer was allowed to flow through the surface of the chip. The reaction signals were detected in real time with Biacore T200 instrument to generate a binding and dissociation curve. At the end of each experimental cycle, after the dissociation was completed, the biosensor chip was washed and regenerated with 10 mM Glycine-HCl (pH1.5).

Aβ1-42 fibrils [2] = target: T2, Aβ1-42 fibrils (human); experiment: SPR, Biacore T200; Aβ1-42 fibrils amine-coupled to CM5 chip, antibody flowed over
T2 construct: Synthetic Aβ1-42 polypeptide (GL Biochem) made into fibrils in vitro (DMSO, diluted in water, 37 °C for 10 days); In the phagocytosis assays the fibrils were fluorescence (FITC) labeled; also called Aβ fibrils; Abeta fibrils
T2 sequence (peptide, as listed by the source): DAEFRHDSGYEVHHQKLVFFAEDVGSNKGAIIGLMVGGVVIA
Procedure: (§2) The affinity of an antibody to Aβ1-42 fibrils was detected by the method of amino coupling. Aβ1-42 fibrils was coupled to CM5 biosensing chip (200 RU), and then the antibody molecules were allowed to flow through the surface of the chip. The reaction signals were detected in real time with Biacore T200 instrument to generate a binding and dissociation curve. At the end of each experimental cycle, after the dissociation was completed, the biosensor chip was washed and regenerated with 10 mM Glycine-HCl (pH 1.5). The positive antibody, Aducanumab, was prepared according to the sequence information about Aducanumab released by WHO (see WHO Drug Information, Vol. 28, No. 3, 2014), and the preparation method was described in Example 4 of the present disclosure.

Aβ1-42 monomer [3] = target: T1, Aβ1-42 monomer; experiment: cell-based or functional assay
Aβ1-42 fibrils [4] = target: T2, Aβ1-42 fibrils; experiment: SPR, Biacore T200; Aβ1-42 fibrils on CM5 chip; reference Aducanumab
Procedure: as §2

Aβ1-42 monomer [5] = target: T1, Aβ1-42 monomer; experiment: SPR, Biacore T200; IgG on Protein A chip, Aβ1-42 monomer as analyte; reference Aducanumab
Procedure: as §1

T1 sequence (peptide, as listed by the source): as above

Kd (Aβ1-42 monomer [1]): 229 nM
Kd (Aβ1-42 fibrils [2]): 11.7 nM
B1: HAB-2401 (antibody, human IgG1, kappa, V domains shown)
VH: EVQLVQSGAEVKKPGASVKVSCKVSGYTLTNTYMHWVRQAPGKGLEWMGRIDPTNGNTKYAPKFKDRVTMTADTSTDTAYMELSSLRSEDTAVYYCARRVYYYDSTYNYWGKGTTVTVSS
VL: DIQMTQSPSSLSASVGDRVTITCKSSQSLLNSGNQKNYLTWYQQKPGKVPKLLIYWASTRESGVPSRFSGSGSGTDFTLTISSLQPEDVATYYCQNDYNYPLTFGGGTKVEIKR

Kd (Aβ1-42 monomer [1]): 333 nM
Kd (Aβ1-42 fibrils [2]): 1.22 nM
IC50 (read off the curve) (Aβ1-42 monomer [3]): ~800 nM
B2: HAB-5101 (antibody, human IgG1, kappa, V domains shown)
VH: QVTLKESGPALVKPTQTLTLTCTFSGFSLSTSGMGVSWIRQPPGKALEWLAHIYWDDVSLYNPSLKSRLTISKDTSKNQVVLTMTNMDPVDTATYYCARRRIITVVDAMDYWGQGTTVTVSS
VL: DVVMTQTPLSLPVTPGEPASISCRSSQSIVHSNGNTYLEWYLQKPGQSPKLLIYKVSNRFSGVPDRFSGSGSGTDFTLKISRVEAEDVGVYYCSQGSRVPPTFGGGTKVEIKR

Kd (Aβ1-42 monomer [1]): 27.9 nM
affinity relative to Aducanumab (Aβ1-42 fibrils [4]): 2 orders of magnitude
affinity relative to Aducanumab (Aβ1-42 monomer [5]): 2 orders of magnitude
Kd (Aβ1-42 fibrils [2]): 0.213 nM
B3: HAB-9001 (antibody, human IgG1, kappa, V domains shown)
VH: QVTLKESGPALVKPTQTLTLTCTFSGFSLSTFGMGVGWIRQPPGKALEWLAHIWWDDNKYYNPALKSRLTISKDTSKNQVVLTMTNMDPVDTATYYCARRGFHLGSRGDYFDHWGQGTTVTVSS
VL: B2 VL with K50Q, S94F, P101L, G105Q, V109L
